Drawing on publication PMC4551934, “RNA aptamer inhibitors of a restriction endonuclease”, this text covers binding result and IC50 for 7 molecules.

Data set [1] deals with T1, BamHI(E111A) restriction endonuclease (UniProt P23940 1-213, E111A).
T1 sequence: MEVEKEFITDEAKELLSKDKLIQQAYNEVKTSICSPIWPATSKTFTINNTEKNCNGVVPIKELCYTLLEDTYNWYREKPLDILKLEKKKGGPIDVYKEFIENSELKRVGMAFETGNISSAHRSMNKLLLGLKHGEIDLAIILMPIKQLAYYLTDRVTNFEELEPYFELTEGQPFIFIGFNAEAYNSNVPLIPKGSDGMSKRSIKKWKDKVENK
The data set is described as follows: EMSA; 20 nM protein; Kd EMSA: 10 mM Bis-Tris-Propane-HCl pH 7, 10 mM MgCl2, 100 ug/ml BSA, 37 C, 30 min; screen EMSA in selection buffers, 37 C: 10 mM HEPES pH 7.5 with 400 mM NaCl/. Particulars: protein: commercial; chain copies: 2; label: 32P; hairpin. (In EMSA bound probe runs differently from free probe, usually more slowly.)

The target of data set [2] is KpnI restriction endonuclease (UniProt P25237 1-218). The data set is described as follows: cleavage inhibition; 20 nM DNA probe N10; Kd EMSA: 10 mM Bis-Tris-Propane-HCl pH 7, 10 mM MgCl2, 100 ug/ml BSA, 37 C, 30 min; screen EMSA in selection buffers, 37 C: 10 mM HEPES pH 7.5 with 400 mM NaCl/. The note with it: protein: commercial, chain copies: 2.
Sequence of KpnI restriction endonuclease (P25237 whole entry): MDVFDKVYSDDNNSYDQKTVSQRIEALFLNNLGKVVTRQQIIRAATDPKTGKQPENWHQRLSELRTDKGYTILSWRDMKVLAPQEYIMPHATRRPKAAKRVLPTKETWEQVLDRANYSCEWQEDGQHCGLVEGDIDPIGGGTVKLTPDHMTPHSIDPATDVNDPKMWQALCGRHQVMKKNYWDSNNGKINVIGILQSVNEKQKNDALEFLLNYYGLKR

Numbering of substitutions follows the chain as printed.

B1: anti-KpnI aptamer 20 (structured_RNA)
RNA: GGGAUAUCCUUCAUGAUUCGGAAAAGCGUAACCGCGGCCAAUCAUGCAUGAAGCGUUCCAUAUUUUU
By IC50 is commonly meant the midpoint of a concentration-inhibition curve. A high value points to weaker potency in that assay. Take B1: in data set [1], the binding result was “no binding”. This molecule gave an IC50 in data set [2] (label: 32P, hairpin) of 36.1 ± 3.9 nM.

B2: anti-KpnI aptamer 30 (structured_RNA)
RNA: B1 RNA with A40G
As for B2, in data set [1], the binding result was “no binding”. Besides, in data set [2] (label: 32P, hairpin), it took 23.1 ± 0.8 nM to reach half-maximal inhibition (IC50).

B3: anti-KpnI aptamer 24 (structured_RNA)
RNA: GGGAUAUCCUUCAUGGUGUGAUUAAACGUAAUCUCAAUCGAUCAUGCAUGAAGCGUUCCAUAUUUUU
Turning to B3, the binding result in data set [1] is given as “no binding”. In the case of GGGUCGGAAAAGCGUAACCGCGGCCA (structured_RNA) [20_26 nt], the IC50 in data set [2] was 77000 nM. GGGCAUGAUUCGGAAAAGCGUAACCGCGGCCAAUCAUG (structured_RNA) [aptamer 20s (38 nt)] had an IC50 in data set [2] (hairpin) of 13 ± 1.5 nM. Molecule GGGCAUGAUUCGGAUAUGCGUAACCGCGGCCAAUCAUG (structured_RNA) [20_AAA] displayed an IC50 in data set [2] of 104000 nM.

B4: anti-KpnI aptamer 29 (16/23/29) (structured_RNA)
RNA: GGGAUAUCCCUACAUGAUAAUCGGGUGAGUAAGGCCUAAACAUCAUGCAUGAAGCGUUCCAUAUUUUU
As to B4, in data set [1], the binding result is “no binding”. Besides, in data set [2] (label: 32P, hairpin), the IC50 turned out to be 153 ± 11 nM.
